Experimental data: patent publication US20260224661A1 (Stanford University, published 2026)

Assays:
[1] = molecular target: Tenm1 (as used in the affinity determinations of FIG. 2E-F) (UniProt Q9UKZ4 1-2725); test: surface binding saturation curve
[2] = molecular target: T1, Tenm1 expressed in HEK293 cells (human, UniProt Q9UKZ4 1-2725); test: surface-binding assay on HEK293 cells expressing Tenm1 (FIG. 4E)
T1 construct: also called teneurin-1

[3] = molecular target: T2, Tenm4 expressed in HEK293 cells (mouse, UniProt Q3UHK6 1-2771); test: surface-binding assay on HEK293 cells expressing Tenm4 (FIG. 4E)
T2 construct: also called teneurin-4

[4] = molecular target: T3, Tenm3 expressed in HEK293 cells (mouse, UniProt Q9WTS6 1-2715); test: surface-binding assay on HEK293 cells expressing Tenm3 (FIG. 4E)
T3 construct: also called teneurin-3

[5] = molecular target: T4, Tenm2 expressed in HEK293 cells (human, UniProt Q9NT68 1-2774); test: surface-binding assay on HEK293 cells expressing Tenm2 (FIG. 4E)
T4 construct: also called teneurin-2

Sequence of Tenm1 (as used in the affinity determinations of FIG. 2E-F) (Q9UKZ4 other isoform, or with tags, fused parts or gaps): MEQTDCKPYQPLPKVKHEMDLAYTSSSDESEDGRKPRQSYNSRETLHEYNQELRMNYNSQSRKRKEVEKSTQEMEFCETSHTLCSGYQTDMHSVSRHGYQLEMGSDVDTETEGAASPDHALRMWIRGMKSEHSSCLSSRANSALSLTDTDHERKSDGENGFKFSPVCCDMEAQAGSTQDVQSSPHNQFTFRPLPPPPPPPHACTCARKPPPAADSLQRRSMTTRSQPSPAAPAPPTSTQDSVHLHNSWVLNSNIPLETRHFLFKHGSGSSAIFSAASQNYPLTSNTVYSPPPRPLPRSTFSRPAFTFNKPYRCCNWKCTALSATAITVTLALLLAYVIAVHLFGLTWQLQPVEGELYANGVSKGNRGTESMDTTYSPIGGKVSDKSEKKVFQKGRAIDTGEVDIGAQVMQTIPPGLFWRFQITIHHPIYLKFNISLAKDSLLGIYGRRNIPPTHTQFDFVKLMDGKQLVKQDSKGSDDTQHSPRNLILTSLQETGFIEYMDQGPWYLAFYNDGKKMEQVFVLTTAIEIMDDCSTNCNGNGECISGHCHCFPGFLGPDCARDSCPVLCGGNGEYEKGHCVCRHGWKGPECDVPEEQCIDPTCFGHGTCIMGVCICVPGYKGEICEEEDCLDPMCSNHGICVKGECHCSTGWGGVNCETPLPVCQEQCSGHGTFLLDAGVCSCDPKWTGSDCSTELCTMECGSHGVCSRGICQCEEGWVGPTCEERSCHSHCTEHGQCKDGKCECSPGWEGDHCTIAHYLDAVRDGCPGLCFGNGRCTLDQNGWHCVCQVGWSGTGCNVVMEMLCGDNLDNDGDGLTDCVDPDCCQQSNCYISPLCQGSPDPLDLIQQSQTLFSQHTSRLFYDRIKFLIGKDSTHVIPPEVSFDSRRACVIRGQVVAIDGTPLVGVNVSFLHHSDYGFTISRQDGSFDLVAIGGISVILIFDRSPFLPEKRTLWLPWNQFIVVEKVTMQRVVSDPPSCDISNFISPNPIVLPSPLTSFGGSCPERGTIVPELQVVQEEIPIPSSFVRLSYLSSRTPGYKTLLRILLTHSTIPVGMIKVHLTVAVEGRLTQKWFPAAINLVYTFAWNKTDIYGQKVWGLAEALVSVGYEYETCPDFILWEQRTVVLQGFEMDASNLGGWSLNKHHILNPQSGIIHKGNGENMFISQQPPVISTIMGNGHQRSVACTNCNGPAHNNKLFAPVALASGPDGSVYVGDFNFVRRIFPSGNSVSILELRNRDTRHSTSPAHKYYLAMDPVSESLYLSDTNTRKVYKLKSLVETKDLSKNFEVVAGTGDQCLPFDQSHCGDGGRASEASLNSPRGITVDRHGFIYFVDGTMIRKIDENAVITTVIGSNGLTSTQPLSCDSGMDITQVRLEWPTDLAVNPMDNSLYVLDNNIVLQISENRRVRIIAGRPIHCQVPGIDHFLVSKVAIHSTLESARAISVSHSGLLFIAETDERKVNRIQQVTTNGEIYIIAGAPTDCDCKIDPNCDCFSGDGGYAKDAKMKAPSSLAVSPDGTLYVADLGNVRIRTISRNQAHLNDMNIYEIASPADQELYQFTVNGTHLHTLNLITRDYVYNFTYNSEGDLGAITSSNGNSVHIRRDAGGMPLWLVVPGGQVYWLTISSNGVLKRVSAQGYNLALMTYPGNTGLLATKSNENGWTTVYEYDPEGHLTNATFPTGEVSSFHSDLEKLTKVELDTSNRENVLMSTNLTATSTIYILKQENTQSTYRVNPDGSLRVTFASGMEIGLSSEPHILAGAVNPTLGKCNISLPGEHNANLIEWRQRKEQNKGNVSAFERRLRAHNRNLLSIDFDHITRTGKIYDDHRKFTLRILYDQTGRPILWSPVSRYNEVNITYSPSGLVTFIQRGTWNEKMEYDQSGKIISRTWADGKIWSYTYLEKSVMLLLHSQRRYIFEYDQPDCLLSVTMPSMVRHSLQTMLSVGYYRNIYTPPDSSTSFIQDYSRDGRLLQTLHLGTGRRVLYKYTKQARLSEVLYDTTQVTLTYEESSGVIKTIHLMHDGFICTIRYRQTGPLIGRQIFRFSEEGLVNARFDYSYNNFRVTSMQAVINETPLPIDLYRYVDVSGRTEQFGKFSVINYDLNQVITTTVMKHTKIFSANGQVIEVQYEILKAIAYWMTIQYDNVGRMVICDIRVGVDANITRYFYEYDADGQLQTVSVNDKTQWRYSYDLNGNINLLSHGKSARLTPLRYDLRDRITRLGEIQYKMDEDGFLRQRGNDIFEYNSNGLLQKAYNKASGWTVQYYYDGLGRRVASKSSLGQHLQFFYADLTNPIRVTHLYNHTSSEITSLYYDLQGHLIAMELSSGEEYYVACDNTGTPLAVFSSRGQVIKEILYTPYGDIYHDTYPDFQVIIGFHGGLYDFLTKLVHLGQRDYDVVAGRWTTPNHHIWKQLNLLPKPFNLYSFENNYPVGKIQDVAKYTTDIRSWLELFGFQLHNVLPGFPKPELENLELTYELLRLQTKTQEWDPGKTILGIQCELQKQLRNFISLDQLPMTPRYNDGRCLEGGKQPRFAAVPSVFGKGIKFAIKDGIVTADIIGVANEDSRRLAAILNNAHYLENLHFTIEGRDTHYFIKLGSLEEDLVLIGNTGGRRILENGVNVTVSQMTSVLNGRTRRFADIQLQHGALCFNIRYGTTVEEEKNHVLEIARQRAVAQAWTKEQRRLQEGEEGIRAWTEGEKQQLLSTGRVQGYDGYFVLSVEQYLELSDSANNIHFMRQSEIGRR
T1 sequence (Q9UKZ4 other isoform, or with tags, fused parts or gaps): as above

Kd [1] | binding result [2] | binding result [3] | binding result [4] | binding result [5] | Binder
88.2 nM |  |  |  |  | C-terminal SPARCL1-C domain of SPARCL1 (ligand) PNAEPSDEGNSREHSAGSCTNFQCKRGHICKTDPQGKPHCVCQDPETCPPAKILDQACGTDNQTYASSCHLFATKCRLEGTKKGHQLQLDYFGACKSIPACTDFEVAQFPLRMRDWLKNILMQLYEPNPKHGGYLNEKQRSKVKKIYLDEKRLLAGDHPIELLLRDFKKNYHMYVYPVHWQFNELDQHPADRILTHSELAPLRASLVPMEHCITRFFEECDPNKDKHITLKEWGHCFGIKEEDIDENLLF
 | no binding | no binding | no binding | no binding | EF-hand Ca2+-binding domain of SPARCL1 (ligand, also called EF-hand domain; EC domain) ACTDFEVAQFPLRMRDWLKNILMQLYEPNPKHGGYLNEKQRSKVKKIYLDEKRLLAGDHPIELLLRDFKKNYHMYVYPVHWQFNELDQHPADRILTHSELAPLRASLVPMEHCITRFFEECDPNKDKHITLKEWGHCFGIKEEDIDENLLF
73.2 nM |  |  |  |  | full-length SPARCL1 (ligand) IPTSTRFLSDHSNPTTATLVTPEDATVPIAGVEATADIENHPNDKAEKPSALNSEEETHEQSTEQDKTYSFEVDLKDEEDGDGDLSVDPTEGTLTLDLQEGTSEPQQKSLPENGDFPATVSTSYVDPNQRANITKGKESQEQPVSDSHQQPNESSKQTQDLKAEESQTQDPDIPNEEEEEEEDEEEEEEEEPEDIGAPSDNQEEGKEPLEEQPTSKWEGNREQSDDTLEESSQPTQISKTEKHQSEQGNQGQESDSEAEGEDKAAGSKEHIPHTEQQDQEGKAGLEAIGNQKDTDEKAVSTEPTDAAVVPRSHGGAGDNGGGDDSKHGAGDDYFIPSQEFLEAERMHSLSYYLKYGGGEETTTGESENRREAADNQEAKKAESSPNAEPSDEGNSREHSAGSCTNFQCKRGHICKTDPQGKPHCVCQDPETCPPAKILDQACGTDNQTYASSCHLFATKCRLEGTKKGHQLQLDYFGACKSIPACTDFEVAQFPLRMRDWLKNILMQLYEPNPKHGGYLNEKQRSKVKKIYLDEKRLLAGDHPIELLLRDFKKNYHMYVYPVHWQFNELDQHPADRILTHSELAPLRASLVPMEHCITRFFEECDPNKDKHITLKEWGHCFGIKEEDIDENLLF
